Data set [1] addresses Ferric uptake regulator (Fur) from Aliivibrio salmonicida (Aliivibrio salmonicida). Kind of data set: SEC; Superdex 200 16/60; 300 mM NaCl, 50 mM Tris-HCl, 5 mM beta-mercaptoethanol, pH 7.5; second purification step after IMAC. A general note: SEC sorts molecules by how far they enter the pores of the column.
Data set [2] addresses T1, AsFur (ferric uptake regulator) (Aliivibrio salmonicida, UniProt Q7AUU7 1-147).
T1 sequence: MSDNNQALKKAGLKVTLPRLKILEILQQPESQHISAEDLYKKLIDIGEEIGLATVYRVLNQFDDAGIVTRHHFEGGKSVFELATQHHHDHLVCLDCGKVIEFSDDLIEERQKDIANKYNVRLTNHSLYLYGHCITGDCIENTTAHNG
As to the kind of experiment: EMSA; Mn2+ (100 uM MnCl2); EMSA: 20 mM Tris acetate pH 8.0, 1 mM MgCl2, 50 mM KCl, 1 mM DTT, 100 uM MnCl2, RT, 5 uM DNA, 0-80 uM AsFur, gel at 6 C; protection assay: 100 mM BisTrisPropane pH 7.5, 100 mM KCl, 5 mM MgSO4, 20 uM AsFur, 10 nM plasmid, RT then HinfI 37 C. The note with it: protein: recombinant; tags: none stated (pDEST14; histidine-rich protein purified by IMAC); chain copies: 2; blunt. On the technique in general: A gel shift assay detects complexes by their altered migration in electrophoresis.

Molecule “Ferric uptake regulator (Fur) from Aliivibrio salmonicida (natural protein)” had a stoichiometry N in data set [1] of 2.

B1: Vibrio anti-consensus (least conserved) (dsDNA)
DNA 1: CCGTGCGCACTCCGCAGGG
DNA 2: CCCTGCGGAGTGCGCACGG
B1: in data set [2], the binding result is recorded as “no binding”.

B2: Vibrio consensus Fur box (dsDNA)
DNA 1: AATGATAATAATTATCATT
DNA 2: AATGATAATTATTATCATT
On to B2, for which the binding result in data set [2] is listed as “binds”.

By stoichiometry N is commonly meant a count of units in the complex or per binding partner.

(Values after article PMC7536154, “Biochemical characterization of ferric uptake regulator (Fur) from Aliivibrio salmonicida. Mapping the DNA sequence specificity through binding studies and structural modelling”.)
